B1: NSUN2 (NOP2/Sun RNA methyltransferase family member 2), wild type, in PANC-1 cells [human (endogenous in PANC-1)] / STUB1 (STIP1 homology and U-box containing protein 1), in PANC-1 cells [human (endogenous in PANC-1)] (parent)
chain 1: MKGKEEKEGGARLGAGGGSPEKSPSAQELKEQGNRLFVGRKYPEAAACYGRAITRNPLVAVYYTNRALCYLKMQQHEQALADCRRALELDGQSVKAHFFLGQCQLEMESYDEAIANLQRAYSLAKEQRLNFGDDIPSALRIAKKKRWNSIEERRIHQESELHSYLSRLIAAERERELEECQRNHEGDEDDSHVRAQQACIEAKHDKYMADMDELFSQVDEKRKKRDIPDYLCGKISFELMREPCITPSGITYDRKDIEEHLQRVGHFDPVTRSPLTQEQLIPNLAMKEVIDAFISENGWVEDY
chain 2: MGRRSRGRRLQQQQRPEDAEDGAEGGGKRGEAGWEGGYPEIVKENKLFEHYYQELKIVPEGEWGQFMDALREPLPATLRITGYKSHAKEILHCLKNKYFKELEDLEVDGQKVEVPQPLSWYPEELAWHTNLSRKILRKSPHLEKFHQFLVSETESGNISRQEAVSMIPPLLLNVRPHHKILDMCAAPGSKTTQLIEMLHADMNVPFPEGFVIANDVDNKRCYLLVHQAKRLSSPCIMVVNHDASSIPRLQIDVDGRKEILFYDRILCDVPCSGDGTMRKNIDVWKKWTTLNSLQLHGLQLRIATRGAEQLAEGGRMVYSTCSLNPIEDEAVIASLLEKSEGALELADVSNELPGLKWMPGITQWKVMTKDGQWFTDWDAVPHSRHTQIRPTMFPPKDPEKLQAMHLERCLRILPHHQNTGGFFVAVLVKKSSMPWNKRQPKLQGKSAETRESTQLSPADLTEGKPTDPSKLESPSFTGTGDTEIAHATEDLENNGSKKDGVCGPPPSKKMKLFGFKEDPFVFIPEDDPLFPPIEKFYALDPSFPRMNLLTRTTEGKKRQLYMVSKELRNVLLNNSEKMKVINTGIKVWCRNNSGEEFDCAFRLAQEGIYTLYPFINSRIITVSMEDVKILLTQENPFFRKLSSETYSQAKDLAKGSIVLKYEPDSANPDALQCPIVLCGWRGKASIRTFVPKNERLHYLRMMGLEVLGEKKKEGVILTNESAASTGQPDNDVTEGQRAGEPNSPDAEEANSPDVTAGCDPAGVHPPR

Variants of: B1
Assay: Co-IP (IP: anti-Flag) immunoblot, band quantification
Conditions: with STUB1 (STIP1 homology and U-box containing protein 1), MG132 +, n = 3, parent: 1, read off a plot

In order of rising response (relative intensity):
1. chain 2 K692E  0.3
2. chain 2 K692R  2

From article PMC12680535
